Assay results published in US20250163119A1, “COMPOUNDS FOR THE TREATMENT OF DIABETES OR OBESITY” (Eli Lilly and Company, priority 2023, published 2025).
*1 amine or outer side, *2 acyl side, *3 side chain or, on linkers, in order; H or OH if unused. Where no end group is shown, it is not given here. Side-chain parts run from the residue outwards. [ ]: non-standard residue; d: D form. The star is where a group is joined. C20 diacid = O=C(O)CCCCCCCCCCCCCCCCCCC(=O)*; γGlu = O=C(O)[C@H](CCC(=O)[*:2])N[*:1]; εLys = N[C@@H](CCCCN[*:1])C(=O)[*:2]; NMeI = CC[C@H](C)[C@H](NC)C(=O)O; pGlu = O=C1CC[C@@H](C(=O)O)N1; αMeL = CC(C)C[C@](C)(N)C(=O)O; AEEA = NCCOCCOCC(=O)O; Aib = CC(C)(N)C(=O)O

T1: human corticotropin-releasing hormone receptor 1 (CRHR1) (human, UniProt P34998 24-415)
T1 sequence (looked up): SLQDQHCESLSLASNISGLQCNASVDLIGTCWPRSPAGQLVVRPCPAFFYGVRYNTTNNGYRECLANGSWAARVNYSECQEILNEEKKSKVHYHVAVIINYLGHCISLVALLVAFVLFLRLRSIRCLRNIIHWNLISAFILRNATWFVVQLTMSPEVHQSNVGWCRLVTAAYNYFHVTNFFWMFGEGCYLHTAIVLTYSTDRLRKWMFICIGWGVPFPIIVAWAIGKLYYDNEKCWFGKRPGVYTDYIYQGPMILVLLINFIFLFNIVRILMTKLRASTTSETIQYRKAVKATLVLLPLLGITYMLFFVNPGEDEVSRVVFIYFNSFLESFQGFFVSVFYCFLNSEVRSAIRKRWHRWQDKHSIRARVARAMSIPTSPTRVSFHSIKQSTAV


Key:
Experiment in all cases: cell-based or functional assay
[1] = target: rat CRHR2 (endogenous on A7r5 cells) (rat, UniProt P47866 20-411)
Chain of rat CRHR2 (endogenous on A7r5 cells) (P47866 20-411): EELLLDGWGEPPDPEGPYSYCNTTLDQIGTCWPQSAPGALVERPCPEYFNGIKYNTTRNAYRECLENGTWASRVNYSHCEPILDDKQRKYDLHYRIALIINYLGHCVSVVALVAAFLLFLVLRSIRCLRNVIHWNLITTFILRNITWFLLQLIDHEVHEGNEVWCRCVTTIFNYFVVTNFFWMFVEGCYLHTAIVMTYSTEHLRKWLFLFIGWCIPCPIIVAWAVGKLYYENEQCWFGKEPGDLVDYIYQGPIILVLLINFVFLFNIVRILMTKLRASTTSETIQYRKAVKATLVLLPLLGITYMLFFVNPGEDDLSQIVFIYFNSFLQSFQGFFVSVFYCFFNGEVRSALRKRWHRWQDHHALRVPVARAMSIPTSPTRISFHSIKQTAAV

[2] = target: T1, human corticotropin-releasing hormone …
[3] = target: T1, human corticotropin-releasing hormone …; remark: listed apart in the source

Row | Binder | A7r5 cAMP EC50 [1] | Y79 cAMP EC50 [2] | hCRHR1 cAMP EC50 [3]
1 | [NMeI]VLSLDVPIGLLQILLEQEKQEKEKQQAKTNAQILAQV-NH2 (not fully specified (residue 29)) [Reference compound SEQ ID NO:54] | 0.471 nM | 6000 nM | > 10000 nM
2 | Ac-IVTS[αMeL]D[dV]PTG[αMeL]LQIKLEQERAEKARQQAKENTEILAQV-NH2 (not fully specified (residue 29)) [polypeptide comprising SEQ ID NO:29] | 0.123 nM | 1000 nM | > 10000 nM
3 | [pGlu]GSPSGIVTS[αMeL]DVPT[Aib][αMeL]LQKILEQERAEKARQQAK([γGlu-AEEA-εLys-C20 diacid])EAAEILAQV-NH2 [polypeptide comprising SEQ ID NO:22] | 0.314 nM | 2400 nM | > 10000 nM
4 | [γGlu]GSPSIVTS[αMeL]DVPT[Aib][αMeL]LQKILEQERAEKARQQATEAAEILAQV-NH2 (not fully specified (residue 1, N-terminus); also: Glu1 linked through its gamma-carboxyl to Gly2) [polypeptide comprising SEQ ID NO:25] | 0.112 nM | 620 nM | > 10000 nM
5 | Ac-PPPIVTS[αMeL]D[dV]PT[Aib][αMeL]LQK[Aib]LEQERAEKARQQAK([γGlu-AEEA-εLys-C20 diacid])ENTEILAQV-NH2 [polypeptide comprising SEQ ID NO:46] | 0.313 nM | 4000 nM | > 10000 nM
6 | [NMeI]VTSLDVPIG[αMeL]LQKLLEQERAEKARQQAKEAAEILAQV-NH2 (not fully specified (residue 29)) [polypeptide comprising SEQ ID NO:50] | 0.967 nM | > 10000 nM | > 10000 nM
7 | Ac-PPPIVTS[αMeL]D[dV]PT[Aib][αMeL]LQKLLEQERAEKARQQAK([γGlu-AEEA-εLys-C20 diacid])EAAEILAQV-NH2 [polypeptide comprising SEQ ID NO:47] | 1.06 nM | 720 nM | 2300 nM
8 | Ac-GSPSIVTS[αMeL]DVPT[Aib][αMeL]LQKILEQERAEKARQQAK([γGlu-AEEA-εLys-C20 diacid])EAAEILAQV-NH2 [polypeptide comprising SEQ ID NO:1] | 0.157 nM | 1400 nM | > 10000 nM
9 | Ac-GSPSIVTS[αMeL]DVPT[Aib][αMeL]LQKLLEQERAEKARQQAK([γGlu-AEEA-εLys-C20 diacid])EAAEILAQV-NH2 [polypeptide comprising SEQ ID NO:2] | 0.544 nM | 2100 nM | > 10000 nM
10 | IVLSLDVPIGLLQILLEQARARAAREQATTNARILARV-NH2 (ligand) [Human urocortin-2 (UCN2)] |  | > 10000 nM | > 10000 nM
11 | Ac-PPPIVTS[αMeL]DVPT[Aib][αMeL]LQKLLEQERAEKARQQAK([γGlu-AEEA-εLys-C20 diacid])EAAEILAQV-NH2 [polypeptide comprising SEQ ID NO:48] | 1.16 nM | 4500 nM | > 10000 nM
12 | [NMeI]VTSLDVPIG[αMeL]LQKLIEQEKQEKEKQQAKENTEILAQV-NH2 (not fully specified (residue 29)) [polypeptide comprising SEQ ID NO:49] | 0.137 nM | > 10000 nM | > 10000 nM
